For assay [1], the target named is full-length human ARC (ARC_(1-396)) (human) (UniProt Q7LC44). Briefly: SEC-MALS. A general note: In gel filtration, larger molecules generally elute earlier.
For assay [2], the target named is T1, ARC_(207-277) (human, UniProt Q7LC44 207-277).
T1 sequence (looked up): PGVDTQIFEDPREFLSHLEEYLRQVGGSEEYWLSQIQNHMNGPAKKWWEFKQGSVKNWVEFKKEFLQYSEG
Briefly: synchrotron radiation circular dichroism.

A further assay deals with T2, ARC_(131-396) (human, UniProt Q7LC44 131-396).
T2 sequence (looked up): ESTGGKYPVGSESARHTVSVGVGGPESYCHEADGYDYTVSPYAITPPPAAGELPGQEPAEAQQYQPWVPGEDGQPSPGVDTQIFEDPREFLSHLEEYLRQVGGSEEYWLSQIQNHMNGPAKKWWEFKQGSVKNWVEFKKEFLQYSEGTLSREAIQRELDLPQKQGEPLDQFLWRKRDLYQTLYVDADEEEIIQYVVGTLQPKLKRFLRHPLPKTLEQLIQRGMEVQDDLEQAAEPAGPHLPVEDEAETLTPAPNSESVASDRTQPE
The assay is described as follows: SAXS.

The target of the next assay is T3, ARC_(170-396) (human, UniProt Q7LC44 170-396).
T3 sequence (looked up): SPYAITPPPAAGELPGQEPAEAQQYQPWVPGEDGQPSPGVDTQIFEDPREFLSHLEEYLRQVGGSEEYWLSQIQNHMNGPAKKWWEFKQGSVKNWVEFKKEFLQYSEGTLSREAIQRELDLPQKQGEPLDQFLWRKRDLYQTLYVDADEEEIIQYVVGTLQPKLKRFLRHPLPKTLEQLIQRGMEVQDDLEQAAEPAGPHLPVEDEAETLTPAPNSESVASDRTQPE
Briefly: SAXS.

The next assay concerns the target T4, ARC_(206-396) (human, UniProt Q7LC44 206-396).
T4 sequence (looked up): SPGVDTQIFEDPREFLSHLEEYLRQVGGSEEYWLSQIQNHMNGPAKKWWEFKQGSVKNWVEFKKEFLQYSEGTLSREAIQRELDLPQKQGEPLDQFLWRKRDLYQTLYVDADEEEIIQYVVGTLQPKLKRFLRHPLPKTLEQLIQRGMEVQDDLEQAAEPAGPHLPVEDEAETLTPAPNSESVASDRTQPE
The assay is described as follows: SAXS.

For another assay, the target named is T5, ARC_(206-361) (human, UniProt Q7LC44 206-361).
T5 sequence (looked up): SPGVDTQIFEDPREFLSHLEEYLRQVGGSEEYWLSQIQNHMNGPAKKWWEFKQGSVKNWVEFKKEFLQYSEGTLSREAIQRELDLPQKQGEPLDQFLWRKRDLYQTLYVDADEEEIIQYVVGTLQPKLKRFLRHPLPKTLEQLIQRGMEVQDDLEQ
The assay is described as follows: SAXS.

The target in assay [3] is T1, ARC_(207-277). The assay is described as follows: SAXS.

The text below walks through data of publication doi:10.1101/332015 (bioRxiv, 2018).

Broadly, the stoichiometry N is a count of units in the complex or per binding partner.

“full-length human ARC (ARC_(1-396)) (from UniProt Q7LC44 1-396) (natural protein)” gave a stoichiometry N in assay [1] of 2.

B1: Stargazin peptide (RIPSYRYR) (peptide)
peptide: Ac-RIPSYRYR-NH2
In the case of B1, the binding result in the assay with ARC_(207-277) [2], with ARC_(131-396), in the assay with ARC_(170-396), with ARC_(206-396) and in the assay with ARC_(206-361) was “binds” each time.

B2: GKAP peptide (TSPKFRSR) (peptide)
peptide: Ac-TSPKFRSR-NH2
With B2, the binding result in the assay with ARC_(131-396), in the assay with ARC_(170-396), with ARC_(206-396), with ARC_(206-361) and in the assay with ARC_(207-277) [3] was “binds” in each case.

B3: WAVE1 peptide (RTPVFVSP) (peptide)
peptide: Ac-RTPVFVSP-NH2
In the case of B3, the binding result with ARC_(131-396), in the assay with ARC_(170-396), with ARC_(206-396), with ARC_(206-361) and with ARC_(207-277) [3] was “binds” in each case.
